For the test, the target named is Thrombin (UniProt P00734 328-622). The test is described as follows: SPR (Biacore X100), multiple-cycle kinetics; biotinylated peptide on streptavidin chip, thrombin 0 to 50 nM as analyte. The method, then: Two peptides were further prepared (synthesized and purified by Peptide 2.0) with the following sequences: a) Biotin—[…] GCG (SEQ ID NO:367) and b) Biotin—[…] (SEQ ID NO:368). The binding affinities of each peptide towards thrombin were tested on a Biacore X100 system.
In brief, 50 ul of 100 ug/ml of streptavidin (in 10 mM NaAc, 0.1 mM EDTA, 1 mM NaCl, 1 mM DTT pH 4.6) was immobilized onto a sensor chip CM5 that was pre-activated with NHS/EDC at a flow rate of 5 μl/min. After ethanolamine deactivation, biotinylated peptides (10 ng/ml) were injected and captured. Following the standard protocol for multiple-cycle kinetics, a series of injections of thrombin were then performed at 0 nM, 3.125 nM, 6.25 nM, 12.5 nM, 25 nM and 50 nM. After each injection, the sensor surface was regenerated for 2 min with 10 mM Glycine-HCl, pH 1.7 (from GE). The sensogram was recorded (see FIG. 5) and kinetic constants were derived by global fitting to a 1:1 Langmuir binding model using the BIAcore X100 Evaluation Software.
A general note: In SPR one partner is held on a chip, and binding of the other changes the refractive index at the surface.

Where no end group is shown, it is not given here. The star is where a group is joined. Biotin = O=C1N[C@H]2[C@H](CS[C@H]2CCCCC(=O)*)N1 Some results are limits rather than exact numbers.

B1: Biotin-GCTSVHQETKKYQSRDPGRLIFQSSYTYNYEHVDVWGCG (designed binder)
peptide: Biotin-GCTSVHQETKKYQSRDPGRLIFQSSYTYNYEHVDVWGCG
modifications: cysteine pairing not given here
notes: Synthetic peptide (Peptide 2.0), captured on a streptavidin CM5 chip; also called peptide a)
As to B1, the “fold change in KD against the linear peptide without cow antibody scaffold sequences (SEQ ID NO:368)” value was greater than 40 fold.
